Earlier results on four substances are cited in paper PMC12112028.

Read-outs that look alike come from different tables or passages of the source.

For series [1], the target named is KISS1R (Homo sapiens) (UniProt Q969F8). As to the kind of experiment: competitive binding assay.
In series [2] the target is KISS1R (Rattus norvegicus) (UniProt Q924U1). As to the kind of experiment: competitive binding assay.
Series [3] concerns the target KISS1R (Homo sapiens) (UniProt Q969F8).
In series [4] the target is KISS1R (Rattus norvegicus) (UniProt Q924U1).
The target is the same in series [5]. This is another data set of the same source.
Series [6] concerns the target KISS1R (Homo sapiens) (UniProt Q969F8). This is another data set of the same source.
Series [7] shares this target. The source holds these as a separate data set.

Chain of UniProt Q969F8 (Q969F8 whole entry): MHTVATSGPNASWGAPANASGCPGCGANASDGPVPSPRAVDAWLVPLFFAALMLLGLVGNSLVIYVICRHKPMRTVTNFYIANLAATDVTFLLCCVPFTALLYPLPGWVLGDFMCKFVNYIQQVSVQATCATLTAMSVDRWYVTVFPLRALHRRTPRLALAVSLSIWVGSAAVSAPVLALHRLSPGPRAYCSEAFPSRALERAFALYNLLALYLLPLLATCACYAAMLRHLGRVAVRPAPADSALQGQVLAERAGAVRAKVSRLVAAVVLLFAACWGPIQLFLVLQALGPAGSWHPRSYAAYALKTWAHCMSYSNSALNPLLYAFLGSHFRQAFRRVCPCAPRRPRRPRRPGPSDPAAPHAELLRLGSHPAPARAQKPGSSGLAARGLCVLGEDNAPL
Chain of UniProt Q924U1 (Q924U1 whole entry): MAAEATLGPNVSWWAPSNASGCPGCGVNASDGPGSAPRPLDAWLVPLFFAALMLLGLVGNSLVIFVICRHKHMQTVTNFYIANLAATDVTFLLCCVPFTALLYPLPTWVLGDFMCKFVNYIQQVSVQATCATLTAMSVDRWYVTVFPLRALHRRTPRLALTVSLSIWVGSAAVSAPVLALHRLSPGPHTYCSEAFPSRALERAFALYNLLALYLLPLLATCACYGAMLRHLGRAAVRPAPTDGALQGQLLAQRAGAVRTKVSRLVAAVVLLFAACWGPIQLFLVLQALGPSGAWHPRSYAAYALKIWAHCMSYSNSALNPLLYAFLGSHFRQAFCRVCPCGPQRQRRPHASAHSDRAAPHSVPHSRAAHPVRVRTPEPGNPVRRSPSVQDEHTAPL

Take KP-14 (from UniProt Q15726): the inhibitory constant (Ki) is 1.65 nM with KISS1R (Homo sapiens) [1] and 2.04 nM in series [2].

As to KP-13 (from UniProt Q15726), the Ki with KISS1R (Homo sapiens) [3] was 4.23 nM; in series [2], 2.08 nM.

For the substance KP-54 (from UniProt Q15726), the inhibition constant Ki with KISS1R (Homo sapiens) [1] is 1.45 nM; in series [2], 1.81 nM.

Take KP-10 (from UniProt Q15726): the inhibition constant Ki in series [4] is 1.59 nM; in the series with KISS1R (Homo sapiens) [6], 2.33 nM. Also, the Kd in series [5] was 1 nM; with KISS1R (Homo sapiens) [7], 1.9 nM.

One may read the Ki as a measure of affinity in units of concentration, obtained from inhibition or displacement. The Kd is the concentration at which binding is half-saturated.
